The values that follow come from article PMC3572029.

This assay concerns the target HSF1β-EGFP (heat shock factor 1, short β splicing isoform, fused to EGFP) (mouse).

HSF1β-EGFP (heat shock factor 1, short β splicing isoform, fused to EGFP) (mouse), sequence (P38532 whole entry, the tested form may be a part, canonical isoform): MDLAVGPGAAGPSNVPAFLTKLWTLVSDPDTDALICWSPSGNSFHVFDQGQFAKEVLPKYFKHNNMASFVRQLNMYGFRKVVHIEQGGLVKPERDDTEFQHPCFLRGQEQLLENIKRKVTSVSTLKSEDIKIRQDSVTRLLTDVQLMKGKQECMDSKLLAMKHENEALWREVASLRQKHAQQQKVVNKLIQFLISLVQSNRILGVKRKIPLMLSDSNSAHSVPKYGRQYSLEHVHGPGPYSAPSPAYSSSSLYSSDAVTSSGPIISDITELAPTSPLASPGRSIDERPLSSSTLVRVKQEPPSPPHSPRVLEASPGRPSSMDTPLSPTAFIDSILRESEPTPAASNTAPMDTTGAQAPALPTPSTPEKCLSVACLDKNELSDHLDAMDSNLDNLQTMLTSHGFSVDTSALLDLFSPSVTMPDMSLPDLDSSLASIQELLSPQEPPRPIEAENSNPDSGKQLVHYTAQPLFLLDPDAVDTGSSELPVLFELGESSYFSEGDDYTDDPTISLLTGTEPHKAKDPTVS

As to “HSF2β (heat shock factor 2, short β splicing isoform) (natural protein)”, the HSE-driven firefly luciferase reporter activity of HSF1β in Hsf1.2−/− iMEFs co-transfected with HSF2β, MG132 at 2.5 µM is 3 fold.
